The test concerns the target murine TRIM66 PHD-Bromodomain (a.a. 996-1,185) (mouse) (UniProt Q924W6). Briefly: ITC; 800 uM to 2.4 mM peptide in the syringe injected into 30-50 uM mTRIM66 PHD-Bromodomain in the cell; 25°C; 20 mM Tris pH 7.5, 100 mM NaCl; single-site binding model; triplicate. For orientation: In ITC the heat of successive injections is recorded.

This is an account of results in publication PMC11077763.

Sequence of UniProt Q924W6 (Q924W6 996-1185): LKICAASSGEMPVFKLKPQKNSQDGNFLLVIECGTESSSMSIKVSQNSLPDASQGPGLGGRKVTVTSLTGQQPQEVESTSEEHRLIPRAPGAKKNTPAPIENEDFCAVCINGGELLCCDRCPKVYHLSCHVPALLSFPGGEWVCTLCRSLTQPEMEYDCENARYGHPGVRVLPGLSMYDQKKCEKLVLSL

Turning to “H3 (1-30) K4me3 (from UniProt P68431 2-31) (peptide)”, the Kd (commonly the concentration at which binding is half-saturated) came out at 59.5 µM.
The substance “H3 (1-30) K4me3+K18Ac (from UniProt P68431 2-31) (peptide)” showed a fold decrease of the binding affinity against the unmodified H3 tail of 7.1 fold and a fold increase of the binding affinity against H3K4me3 alone of 2.4 fold.
Consider “H3 (1-30) K9me3+K18Ac (from UniProt P68431 2-31) (peptide)”, for which the Kd worked out at 1.3 µM.
On the same count and under the same terms, for “H3 (1-30) unmodified (from UniProt P68431 2-31) (peptide)” the value was 3.4 µM.
